# Data as given in US8852550B2, “Chelator conjugates” (GE Healthcare Limited, priority 2001, dated 2014).
# Ends that are not written are not given here. Compound 1 = not defined here
# Experiments:
# [1] = 99mTc labelling of Compound 9, radiochemical purity by ITLC and HPLC (Example 13); format: physicochemical
# Description: Compound 9 was prepared in an analogous manner to Examples 7 and 8, and labelled with ^99mTc in solution (Preparation 1) or via a freeze-dried kit according to Example 10 (Preparation 2).
# For Preparation 1, 100 μg of Compound 9 was dissolved in 1 ml of pH 8.5 borate buffer. This was transferred to a P6 vial and sealed. 1 ml ^99mTc-pertechnetate in saline (1.0 GBq/ml, from an Amertec II generator) was added at room temperature, together with 0.1 ml SnCl2 solution (10 mg SnCl2 in 100 ml N2 purged saline). The activity was measured using an ion chamber. The RCP was measured using ITLC and HPLC.
# [2] = 99mTc labelling of Compound 5, radiochemical purity by ITLC and HPLC (Example 11); format: physicochemical
# Description: A freeze-dried formulation containing: • 50 μg PABA (para-aminobenzoic acid), • 30 μg SnCl2, • 90 μg MDP (methylenediphosphonic acid), • 1.32 mg NaHCO3, • 98 μg Na2CO3, • 4 mg NaOAc, was sealed under nitrogen gas in a 10 ml glass vial. The vial was removed from freezer storage and left at room temperature for 15 minutes, and was then reconstituted with 100 μl of a solution containing Compound 5, ie. the peptide-chelator conjugate Ac-Asn-Gln-Glu-Gln-Val-Ser-Pro-(I-Tyr)-Thr-Leu-Leu-Lys-Gly-[Compound 1] (2 mg in 2 ml water) and Xml of ^99mTc-pertechnetate in saline, with a radioactive concentration of 0.5 GBq/ml, from an Amertec II ^99mTc generator at room temperature. The activity was measured using an ion chamber. The RCP was measured using ITLC and HPLC. The results are shown in Table 3 for different values of X: […]
# [3] = Prep 1, X 2 ml, 1.04 GBq, 255 min post-reconstitution
# [4] = Prep 2, X 2 ml, 1 GBq, 15 min post-reconstitution
# [5] = Prep 3, X 5 ml, 2.47 GBq, 15 min post-reconstitution
Substance,"RCP by ITLC ([1]; Preparation 1: in solution, pH 8.5 borate buffer, room temperature)",RCP by HPLC ([1]; Preparation 2: freeze-dried kit according to Example 10),"RCP % (ITLC) ([2]; Prep 1, X 2 ml, 1.04 GBq, 15 min post-reconstitution)","RCP % (HPLC) [2, 3]","RCP % (ITLC) [2, 3]","RCP % (HPLC) [2, 4]","RCP % (ITLC) [2, 4]","RCP % (HPLC) ([2]; Prep 2, X 2 ml, 1 GBq, 60 min post-reconstitution)","RCP % (HPLC) [2, 5]","RCP % (ITLC) [2, 5]","RCP % (HPLC) ([2]; Prep 3, X 5 ml, 2.47 GBq, 150 min post-reconstitution)","RCP % (ITLC) ([2]; Prep 4, X 2 ml, 1.02 GBq, 15 min post-reconstitution)","RCP % (HPLC) ([2]; Prep 4, X 2 ml, 1.02 GBq, 140 min post-reconstitution)"
"[Compound 1]-Cys-Cys-Glu-Leu-Cys-Cys-Asn-Pro-Ala-Cys-Ala-Cys-Tyr-OH ({Compound 1}-CCELCCNPACACY-OH; reading uncertain; also: cyclic, bridges not given here, printed as [Compound 1]-Cys-Cys-Glu-Leu-Cys-Cys-Asn-Pro-Ala-Cys-Ala-Cys-Tyr-OH) [Compound 9]",96%,82%,,,,,,,,,,,
"Ac-Asn-Gln-Glu-Gln-Val-Ser-Pro-(I-Tyr)-Thr-Leu-Leu-Lys-Gly-[Compound 1] (chain 1 Ac-NQEQVSP; chain 2 TLLKG-{Compound 1}; not fully specified (C-terminus); reading uncertain; also: chains 1 and 2 joined in one chain through I-Tyr) [Compound 5, peptide-chelator conjugate of Compound 1 with thrombus-targeting peptide]",,,99.4%,86.8%,99.2%,83.0%,99.3%,85.2%,86.5%,99.3%,87.6%,99.1%,86.6%
